In patent US20100172907A1 (Hoffmann-La Roche, published 2010):

B1: MS-Roche #3.4.H13 Fab (Fab, V domains shown)
VH: QVQLVESGGGLVQPGGSLRLSCAASGFTFSSYAMSWVRQAPGKGLEWVSAISEQGRNIYYADSVKGRFTISRDNSKNTLYLQMNSLRAEDTAVYYCARLTHYARYYRYFDVWGQGTLVTVSS
VL: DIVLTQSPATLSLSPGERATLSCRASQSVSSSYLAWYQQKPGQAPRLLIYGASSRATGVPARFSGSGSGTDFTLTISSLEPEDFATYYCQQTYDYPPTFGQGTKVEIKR
B2: MS-Roche #3.4.H14 Fab (Fab, V domains shown)
VH: QVQLVESGGGLVQPGGSLRLSCAASGFTFSSYAMSWVRQAPGKGLEWVSAISESGQYKYYADSVKGRFTISRDNSKNTLYLQMNSLRAEDTAVYYCARLTHYARYYRYFDVWGQGTLVTVSS
VL: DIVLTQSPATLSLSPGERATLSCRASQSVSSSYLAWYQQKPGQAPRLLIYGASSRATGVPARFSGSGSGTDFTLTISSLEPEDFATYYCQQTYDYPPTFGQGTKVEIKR
B3: MS-Roche #7.2.H6 Fab (Fab, V domains shown)
VH: QVQLVESGGGLVQPGGSLRLSCAASGFTFSSYAMSWVRQAPGKGLEWVSAINARGNRTYYADSVKGRFTISRDNSKNTLYLQMNSLRAEDTAVYYCARGKGNTHKPYGYVRYFDVWGQGTLVTVSS
VL: DIVLTQSPATLSLSPGERATLSCRASQSVSSSYLAWYQQKPGQAPRLLIYGASSRATGVPARFSGSGSGTDFTLTISSLEPEDFATYYCQQIYSFPHTFGQGTKVEIKR
B4: MS-Roche #7.12.H1 Fab (Fab, V domains shown)
VH: QVQLVESGGGLVQPGGSLRLSCAASGFTFSSYGMSWVRQAPGKGLEWVSNINGNGNRKYYADSVKGRFTISRDNSKNTLYLQMNSLRAEDTAVYYCARGKGNTHKPYGYVRYFDVWGQGTLVTVSS
VL: DIVLTQSPATLSLSPGERATLSCRASQYVFRRYLAWYQQKPGQAPRLLISGSSNRATGVPARFSGSGSGTDFTLTISSLEPEDFAVYYCLQLYNIPNTFGQGTKVEIKR
B5: MS-Roche #7.12.L2 Fab (Fab, V domains shown)
VH: QVQLVESGGGLVQPGGSLRLSCAASGFTFSSYGMSWVRQAPGKGLEWVSNISGSGSSTYYADSVKGRFTISRDNSKNTLYLQMNSLRAEDTAVYYCARGKGNTHKPYGYVRYFDVWGQGTLVTVSS
VL: DIVLTQSPATLSLSPGERATLSCRASQRFFYKYLAWYQQKPGQAPRLLISGSSNRATGVPARFSGSGSGTDFTLTISSLEPEDFAVYYCLQLYNIPNTFGQGTKVEIKR
B6: MS-Roche #7.12.L3 Fab (Fab, V domains shown)
VH: QVQLVESGGGLVQPGGSLRLSCAASGFTFSSYGMSWVRQAPGKGLEWVSNISGSGSSTYYADSVKGRFTISRDNSKNTLYLQMNSLRAEDTAVYYCARGKGNTHKPYGYVRYFDVWGQGTLVTVSS
VL: DIVLTQSPATLSLSPGERATLSCRASQFVRRGFLAWYQQKPGQAPRLLISGSSNRATGVPARFSGSGSGTDFTLTISSLEPEDFAVYYCLQLYNIPNTFGQGTKVEIKR
B7: MS-Roche #7.12.L4 Fab (Fab, V domains shown)
VH: QVQLVESGGGLVQPGGSLRLSCAASGFTFSSYGMSWVRQAPGKGLEWVSNISGSGSSTYYADSVKGRFTISRDNSKNTLYLQMNSLRAEDTAVYYCARGKGNTHKPYGYVRYFDVWGQGTLVTVSS
VL: DIVLTQSPATLSLSPGERATLSCRASQRLKRSYLAWYQQKPGQAPRLLISGSSNRATGVPARFSGSGSGTDFTLTISSLEPEDFAVYYCLQLYNIPNTFGQGTKVEIKR
B8: MS-Roche #7.9.L2 Fab (Fab, V domains shown)
VH: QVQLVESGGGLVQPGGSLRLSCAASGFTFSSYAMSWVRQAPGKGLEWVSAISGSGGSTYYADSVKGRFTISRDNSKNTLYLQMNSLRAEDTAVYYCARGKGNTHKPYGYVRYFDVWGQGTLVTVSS
VL: DIVLTQSPATLSLSPGERATLSCRASQYLHKRYLAWYQQKPGQAPRLLIYGASSRATGVPARFSGSGSGTDFTLTISSLEPEDFATYYCLQIYNMPITFGQGTKVEIKR
B9: MS-Roche #7.11.H5 Fab (Fab, V domains shown)
VH: QVQLVESGGGLVQPGGSLRLSCAASGFTFSSYAMSWVRQAPGKGLEWVSAINAHGQRTYYADSVKGRFTISRDNSKNTLYLQMNSLRAEDTAVYYCARGKGNTHKPYGYVRYFDVWGQGTLVTVSS
VL: DIVLTQSPATLSLSPGERATLSCRASQSVSSSYLAWYQQKPGQAPRLLIYGASSRATGVPARFSGSGSGTDFTLTISSLEPEDFATYYCQQVYSPPHTFGQGTKVEIKR
B10: MS-Roche #7.11.H4 Fab (Fab, V domains shown)
VH: QVQLVESGGGLVQPGGSLRLSCAASGFTFSSYAMSWVRQAPGKGLEWVSAINANGYKTYYADSVKGRFTISRDNSKNTLYLQMNSLRAEDTAVYYCARGKGNTHKPYGYVRYFDVWGQGTLVTVSS
VL: DIVLTQSPATLSLSPGERATLSCRASQSVSSSYLAWYQQKPGQAPRLLIYGASSRATGVPARFSGSGSGTDFTLTISSLEPEDFATYYCQQVYSPPHTFGQGTKVEIKR
B11: MS-Roche #7.11.H3 Fab (Fab, V domains shown)
VH: QVQLVESGGGLVQPGGSLRLSCAASGFTFSSYAMSWVRQAPGKGLEWVSGINANGNRTYYADSVKGRFTISRDNSKNTLYLQMNSLRAEDTAVYYCARGKGNTHKPYGYVRYFDVWGQGTLVTVSS
VL: DIVLTQSPATLSLSPGERATLSCRASQSVSSSYLAWYQQKPGQAPRLLIYGASSRATGVPARFSGSGSGTDFTLTISSLEPEDFATYYCQQVYSPPHTFGQGTKVEIKR
B12: MS-Roche #7.9.L1 Fab (Fab, V domains shown)
VH: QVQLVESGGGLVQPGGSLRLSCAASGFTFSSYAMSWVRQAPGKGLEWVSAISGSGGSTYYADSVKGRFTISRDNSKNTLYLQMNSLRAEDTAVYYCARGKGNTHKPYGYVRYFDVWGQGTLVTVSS
VL: DIVLTQSPATLSLSPGERATLSCRASQRLSPRYLAWYQQKPGQAPRLLIYGASSRATGVPARFSGSGSGTDFTLTISSLEPEDFATYYCLQIYNMPITFGQGTKVEIKR
B13: MS-Roche #7.2.H8 Fab (Fab, V domains shown)
VH: QVQLVESGGGLVQPGGSLRLSCAASGFTFSSYAMSWVRQAPGKGLEWVSAINASGHKTYYADSVKGRFTISRDNSKNTLYLQMNSLRAEDTAVYYCARGKGNTHKPYGYVRYFDVWGQGTLVTVSS
VL: DIVLTQSPATLSLSPGERATLSCRASQSVSSSYLAWYQQKPGQAPRLLIYGASSRATGVPARFSGSGSGTDFTLTISSLEPEDFATYYCQQIYSFPHTFGQGTKVEIKR
B14: MS-Roche #7.2.L4 Fab (Fab, V domains shown)
VH: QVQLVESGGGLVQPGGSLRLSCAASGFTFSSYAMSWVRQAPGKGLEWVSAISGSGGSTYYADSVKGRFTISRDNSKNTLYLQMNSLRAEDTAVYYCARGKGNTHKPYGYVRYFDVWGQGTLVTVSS
VL: DIVLTQSPATLSLSPGERATLSCRASQFIRRSYLAWYQQKPGQAPRLLIYGASSRATGVPARFSGSGSGTDFTLTISSLEPEDFATYYCQQIYSFPHTFGQGTKVEIKR
B15: MS-Roche #7.3.L1 Fab (Fab, V domains shown)
VH: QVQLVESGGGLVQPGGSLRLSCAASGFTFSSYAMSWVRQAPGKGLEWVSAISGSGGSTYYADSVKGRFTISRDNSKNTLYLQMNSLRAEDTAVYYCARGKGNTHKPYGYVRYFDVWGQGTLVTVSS
VL: DIVLTQSPATLSLSPGERATLSCRASQYLHYGYLAWYQQKPGQAPRLLIYGASSRATGVPARFSGSGSGTDFTLTISSLEPEDFAVYYCHQVYSHPFTFGQGTKVEIKR
B16: MS-Roche #7.2.L2 Fab (Fab, V domains shown)
VH: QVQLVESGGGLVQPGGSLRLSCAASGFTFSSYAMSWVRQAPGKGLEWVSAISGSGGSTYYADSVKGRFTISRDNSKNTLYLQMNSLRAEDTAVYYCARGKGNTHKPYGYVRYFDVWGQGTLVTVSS
VL: DIVLTQSPATLSLSPGERATLSCRASQYISFRYLAWYQQKPGQAPRLLIYGASSRATGVPARFSGSGSGTDFTLTISSLEPEDFATYYCQQIYSFPHTFGQGTKVEIKR
B17: MS-Roche #7.9.H9 Fab (Fab, V domains shown)
VH: QVQLVESGGGLVQPGGSLRLSCAASGFTFSSYAMSWVRQAPGKGLEWVSAINGKGNKKYYADSVKGRFTISRDNSKNTLYLQMNSLRAEDTAVYYCARGKGNTHKPYGYVRYFDVWGQGTLVTVSS
VL: DIVLTQSPATLSLSPGERATLSCRASQSVSSSYLAWYQQKPGQAPRLLIYGASSRATGVPARFSGSGSGTDFTLTISSLEPEDFATYYCLQIYNMPITFGQGTKVEIKR
notes: assembled
B18: MS-Roche #7.3.H1 Fab (Fab, V domains shown)
VH: QVQLVESGGGLVQPGGSLRLSCAASGFTFSSYAMSWVRQAPGKGLEWVSAISAISNKTYYADSVKGRFTISRDNSKNTLYLQMNSLRAEDTAVYYCARGKGNTHKPYGYVRYFDVWGQGTLVTVSS
VL: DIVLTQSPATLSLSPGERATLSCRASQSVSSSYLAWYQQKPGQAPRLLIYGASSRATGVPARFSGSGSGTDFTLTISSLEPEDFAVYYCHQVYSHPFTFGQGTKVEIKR
B19: MS-Roche #7.11.L1 Fab (Fab, V domains shown)
VH: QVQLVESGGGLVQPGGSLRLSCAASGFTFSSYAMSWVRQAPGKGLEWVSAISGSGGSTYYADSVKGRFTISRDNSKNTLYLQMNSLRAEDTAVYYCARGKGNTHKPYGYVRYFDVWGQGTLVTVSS
VL: DIVLTQSPATLSLSPGERATLSCRASQRILRIYLAWYQQKPGQAPRLLIYGASSRATGVPARFSGSGSGTDFTLTISSLEPEDFATYYCQQVYSPPHTFGQGTKVEIKR
B20: MS-Roche #7.9.H8 Fab (Fab, V domains shown)
VH: QVQLVESGGGLVQPGGSLRLSCAASGFTFSSYAMSWVRQAPGKGLEWVSAINASGSKIYYADSVKGRFTISRDNSKNTLYLQMNSLRAEDTAVYYCARGKGNTHKPYGYVRYFDVWGQGTLVTVSS
VL: DIVLTQSPATLSLSPGERATLSCRASQSVSSSYLAWYQQKPGQAPRLLIYGASSRATGVPARFSGSGSGTDFTLTISSLEPEDFATYYCLQIYNMPITFGQGTKVEIKR
notes: assembled
B21: MS-Roche #7.9.H5 Fab (Fab, V domains shown)
VH: QVQLVESGGGLVQPGGSLRLSCAASGFTFSSYAMSWVRQAPGKGLEWVSAINHAGNKKYYADSVKGRFTISRDNSKNTLYLQMNSLRAEDTAVYYCARGKGNTHKPYGYVRYFDVWGQGTLVTVSS
VL: DIVLTQSPATLSLSPGERATLSCRASQSVSSSYLAWYQQKPGQAPRLLIYGASSRATGVPARFSGSGSGTDFTLTISSLEPEDFATYYCLQIYNMPITFGQGTKVEIKR
notes: assembled
B22: MS-Roche #7.2.H7 Fab (Fab, V domains shown)
VH: QVQLVESGGGLVQPGGSLRLSCAASGFTFSSYAMSWVRQAPGKGLEWVSAINSRGSDTHYADSVKGRFTISRDNSKNTLYLQMNSLRAEDTAVYYCARGKGNTHKPYGYVRYFDVWGQGTLVTVSS
VL: DIVLTQSPATLSLSPGERATLSCRASQSVSSSYLAWYQQKPGQAPRLLIYGASSRATGVPARFSGSGSGTDFTLTISSLEPEDFATYYCQQIYSFPHTFGQGTKVEIKR
B23: MS-Roche #7.9.H7 Fab (Fab, V domains shown)
VH: QVQLVESGGGLVQPGGSLRLSCAASGFTFSSYAMSWVRQAPGKGLEWVSAINASGTRTYYADSVKGRFTISRDNSKNTLYLQMNSLRAEDTAVYYCARGKGNTHKPYGYVRYFDVWGQGTLVTVSS
VL: DIVLTQSPATLSLSPGERATLSCRASQSVSSSYLAWYQQKPGQAPRLLIYGASSRATGVPARFSGSGSGTDFTLTISSLEPEDFATYYCLQIYNMPITFGQGTKVEIKR
notes: also called MSR 7.9H7
B24: MS-Roche #8.2.H4 Fab (Fab, V domains shown)
VH: QVQLVESGGGLVQPGGSLRLSCAASGFTFSSYAMSWVRQAPGKGLEWVSATSVKGKTYYADSVKGRFTISRDNSKNTLYLQMNSLRAEDTAVYYCARLLSRGYNGYYHKFDVWGQGTLVTVSS
VL: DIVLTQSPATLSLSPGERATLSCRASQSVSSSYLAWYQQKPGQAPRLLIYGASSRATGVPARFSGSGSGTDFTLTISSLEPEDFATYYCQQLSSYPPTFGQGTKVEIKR
notes: H-CDR2 printed with 16 residues

Legend:
[1] = target: T1, human Aβ (1-40) peptide (human); assay: SPR, immobilized fibers;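 also: biacore SPR using in vitro grown Aβ1-40 or Aβ1-42 fibrils immobilized on the chip with Fab analytes, KD from koff/kon fits or equilibrium isotherms based on total Fab concentration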
T1 construct: also called Aβ1-40 fibers

[2] = target: T2, Aβ (1-42) peptide (human); assay: SPR, immobilized fibers;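 also: biacore SPR using in vitro grown Aβ1-40 or Aβ1-42 fibrils immobilized on the chip with Fab analytes, KD from koff/kon fits or equilibrium isotherms based on total Fab concentration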
T2 construct: also called Aβ1-42 fibers; Aβ4

Row | Binder | Kd [1] [nM] | Kd [2] [nM]
1 | B1 | 32.3 | 18.8
2 | B2 | 13.3 | 16.8
3 | B3 | 1 | –
4 | B4 | 0.6 | 0.8
5 | B5 | 4 | 5.4
6 | B6 | 0.8 | 0.9
7 | B7 | 2 | 0.6
8 | B8 | 1 | 0.5
9 | B9 | 3.4 | 1.7
10 | B10 | 1 | 1.7
11 | B11 | 6.6 | 4.4
12 | B12 | 1 | 1.1
13 | B13 | 1.5 | 2.1
14 | B14 | 1.1 | 1.1
15 | B15 | 4.5 | 6
16 | B16 | 5.6 | 4
17 | B17 | 0.9 | 0.9
18 | B18 | 8 | 11.2
19 | B19 | 1.1 | 1.2
20 | B20 | 0.8 | 0.7
21 | B21 | 1.7 | 1.8
22 | B22 | 15.5 | 8.1
23 | B23 | 1 | 0.9
24 | B24 | 12.1 | 11.9
